Source: PMC4216633 (Journal of nuclear medicine : official publication, Society …, 2014)

What was measured:
thrombus = test: Ex vivo biodistribution in rat model of arterial thrombosis; conditions: rat carotid crush thrombosis
[1] = rat, in vivo, iv
[2] = rat, in vivo

Substance | uptake at the target site (thrombus), persisted over 5h (thrombus) | elimination half-life of the intact probe in blood [1] | intact probe in blood at 4h post-injection [2]
FHCHypY(3-Cl)DLCHIL-PXD (disulfide) [FBP8] | 0.5–0.8 % ID/g | 13.8 ± 3.8 min | > 85%
FHCHypY(3-Cl)DLCHIL-PXD (disulfide) [FBP9] | 0.5–0.8 % ID/g | 17.9 ± 5.8 min | > 85%
